Experimental data taken from patent US20050152926A1.

Legend:
[1] = target: HLA A2 on RMA-S/A2 cells (human); experiment: RMA-S/A2 HLA A2 stabilisation, BB7.2 FACS; 100 µM peptide; FIG 1(xxv)
[2] = target: HLA A2 on RMA-S/A2 cells (human); experiment: RMA-S/A2 HLA A2 stabilisation, BB7.2 FACS; 100 µM peptide; ΔMean minus highest HepB ΔMean
[3] = target: HLA A2 on RMA-S/A2 cells (human); experiment: RMA-S/A2 HLA A2 stabilisation, BB7.2 FACS; 100 µM peptide; FIG 3(xxii)
[4] = target: HLA A2 on RMA-S/A2 cells (human); experiment: RMA-S/A2 HLA A2 stabilisation, BB7.2 FACS; 100 µM peptide; FIG 3(xix)
[5] = target: HLA A2 on RMA-S/A2 cells (human); experiment: RMA-S/A2 HLA A2 stabilisation, BB7.2 FACS; 100 µM peptide; FIG 2(xix)
[6] = target: HLA A2 on RMA-S/A2 cells (human); experiment: RMA-S/A2 HLA A2 stabilisation, BB7.2 FACS; 100 µM peptide; FIG 1(xxi)
[7] = target: HLA A2 on RMA-S/A2 cells (human); experiment: RMA-S/A2 HLA A2 stabilisation, BB7.2 FACS; 1 µM peptide; FIG 1(xii)
[8] = target: HLA A2 on RMA-S/A2 cells (human); experiment: RMA-S/A2 HLA A2 stabilisation, BB7.2 FACS; 1 µM peptide; ΔMean minus highest HepB ΔMean
[9] = target: HLA A2 on RMA-S/A2 cells (human); experiment: RMA-S/A2 HLA A2 stabilisation, BB7.2 FACS; 100 µM peptide; FIG 3(xxiv)
[10] = target: HLA A2 on RMA-S/A2 cells (human); experiment: RMA-S/A2 HLA A2 stabilisation, BB7.2 FACS; 10 µM peptide; FIG 2(xi)
[11] = target: HLA A2 on RMA-S/A2 cells (human); experiment: RMA-S/A2 HLA A2 stabilisation, BB7.2 FACS; 10 µM peptide; ΔMean minus highest HepB ΔMean
[12] = target: HLA A2 on RMA-S/A2 cells (human); experiment: RMA-S/A2 HLA A2 stabilisation, BB7.2 FACS; 100 µM peptide; FIG 3(xxiii)
[13] = target: HLA A2 on RMA-S/A2 cells (human); experiment: RMA-S/A2 HLA A2 stabilisation, BB7.2 FACS; 100 µM peptide; FIG 3(xxi)
[14] = target: HLA A2 on RMA-S/A2 cells (human); experiment: RMA-S/A2 HLA A2 stabilisation, BB7.2 FACS; 100 µM peptide; FIG 1(xxvi)
[15] = target: HLA A2 on RMA-S/A2 cells (human); experiment: RMA-S/A2 HLA A2 stabilisation, BB7.2 FACS; 100 µM peptide; FIG 3(xx)
[16] = target: HLA A2 on RMA-S/A2 cells (human); experiment: RMA-S/A2 HLA A2 stabilisation, BB7.2 FACS; 100 µM peptide; FIG 1(xxii)
[17] = target: HLA A2 on RMA-S/A2 cells (human); experiment: RMA-S/A2 HLA A2 stabilisation, BB7.2 FACS; 100 µM peptide; FIG 3(xxv)
[18] = target: HLA A2 on RMA-S/A2 cells (human); experiment: RMA-S/A2 HLA A2 stabilisation, BB7.2 FACS; 100 µM peptide; FIG 2(x)

Binder LLLTLGYAV (modifications not checked) [CH19] has a Mean 2 [1] of 436, a Δ Mean [1] of 240 and a High - B [2] of 0.

Work on NLWSHYTDL (modifications not checked) [CH53] yielded a Mean 2 [3] of 350, a Δ Mean [3] of 209 and a High - B [2] of 48.

For SLCAQSSYV (modifications not checked) [CH50], the Mean 2 [4] was 381, the Δ Mean [4] was 251 and the High - B [2] was 91.

Binder KLLKDHFDL (modifications not checked) [CH34] has a Mean 2 [5] of 390, a Δ Mean [5] of 235 and a High - B [2] of 81.

Work on YLTSYSPYV (modifications not checked) [CH15] yielded a Mean 2 [6] of 557, a Δ Mean [6] of 322 and a High - B [2] of 76.

VLNLFFSAL (modifications not checked) [CH3] gave a Mean 2 [7] of 419, a Δ Mean [7] of 224 and a High - B [8] of 0.

Binder ALWGHNVLL (modifications not checked) [CH55] has a Mean 2 [9] of 411, a Δ Mean [9] of 258 and a High - B [2] of 98.

Work on WLFDLRFSV (modifications not checked) [CH22] yielded a Mean 2 [10] of 390, a Δ Mean [10] of 227 and a High - B [11] of 73.

ALWKENQAL (modifications not checked) [CH54] gave a Δ Mean [12] of 251 and a High - B [2] of 91.

SLLEEHPVV (modifications not checked) [CH52] was tested, and the Mean 2 [13] was 396, the Δ Mean [13] was 249 and the High - B [2] was 89.

ALMLLNNYV (modifications not checked) [CH20] gave a Mean 2 [14] of 578, a Δ Mean [14] of 384 and a High - B [2] of 138.

NLSRQAFFA (modifications not checked) [CH51] showed a Mean 2 [15] of 311, a Δ Mean [15] of 179 and a High - B [2] of 19.

In the case of VQLAYVFDV (modifications not checked) [CH16], the Mean 2 [16] is reported as 433, the Δ Mean [16] is reported as 232 and the High - B [2] is reported as 0.

NLAGGILSV (modifications not checked) [CH56] gave a Mean 2 [17] of 383, a Δ Mean [17] of 240 and a High - B [2] of 80.

TLWGSFVDV (modifications not checked) [CH21] gave a Mean 2 [18] of 440, a Δ Mean [18] of 275 and a High - B [2] of 121.
